Reference: patent US10442866 (BEIJING MABWORKS BIOTECH, dated 2019)
Positions count from the first letter of the chain named. Blank lines part the entries; values can stand above or below the binder they belong to.

Assays:
[1] = molecular target: T1, human HVEM-mFc (TNFRSF14, ACRO, Cat#: HVM-H5255) (human, UniProt Q92956 39-202); test: ELISA on coated recombinant human TNFRSF protein, OD450
T1 construct: bought protein; also called HVEM(TNFRSF14); not shown: mouse Fc (mFc)
T1 sequence (looked up): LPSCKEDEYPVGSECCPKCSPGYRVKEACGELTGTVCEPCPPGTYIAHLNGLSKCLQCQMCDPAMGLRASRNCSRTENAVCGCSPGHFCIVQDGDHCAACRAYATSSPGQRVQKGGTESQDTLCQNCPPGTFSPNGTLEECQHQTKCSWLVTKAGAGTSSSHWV
Protocol: (§1) ELISA assays were performed to determine the binding specificity of anti-OX40 antibodies to human OX40, in comparison to other human TNFRSF members with homologous amino acid sequences, following the protocol described in Example 2.

[2] = molecular target: T2, human NGFR (TNFRSF16, Sino Biological, Cat#: 13184-H08H) (human, UniProt P08138 29-250); test: as above
T2 construct: bought recombinant protein
T2 sequence (looked up): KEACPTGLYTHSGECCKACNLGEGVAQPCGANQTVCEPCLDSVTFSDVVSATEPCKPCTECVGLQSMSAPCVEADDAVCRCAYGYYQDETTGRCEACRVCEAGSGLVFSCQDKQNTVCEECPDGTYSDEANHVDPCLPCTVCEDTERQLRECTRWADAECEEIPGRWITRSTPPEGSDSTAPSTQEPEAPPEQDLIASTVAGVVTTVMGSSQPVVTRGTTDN
Protocol: as §1

[3] = molecular target: T3, rhesus OX40 expressed on HEK293A cells (rhesus, UniProt P43489 29-277 (human entry)); test: FACS on HEK293A/rhesus OX40 cells, MFI (panel without title; monkey OX40 by the legend)
T3 construct: also called HEK293A/rhOX40; HEK293A/rhesusOX40 cells
T3 chain: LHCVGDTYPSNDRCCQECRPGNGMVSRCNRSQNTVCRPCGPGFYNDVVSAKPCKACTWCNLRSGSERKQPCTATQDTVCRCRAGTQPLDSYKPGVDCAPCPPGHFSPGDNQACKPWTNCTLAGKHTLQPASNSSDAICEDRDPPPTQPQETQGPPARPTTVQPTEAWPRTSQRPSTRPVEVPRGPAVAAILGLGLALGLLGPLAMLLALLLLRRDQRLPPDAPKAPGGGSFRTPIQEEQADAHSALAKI
Protocol: Briefly, 10^5 HEK293A cells were seeded into each well of the 96-well plates and serially diluted anti-OX40 antibodies were added to the plates. After incubated at 4° C. for 1 hour, plates were washed 3 times with PBST. Then, an APC coupled Goat Anti-Mouse IgG (BioLegen, US, Cat#: 405308) diluted 500× was added to the plates. After incubation at 4° C. for 1 hour, the plates were washed with PBS for 3 times and then cell fluorescence was monitored using a FACS machine (BD).
Example 15 Humanized Anti-OX40 Antibodies Bound to Human or Rhesus OX40 Expressed on HEK293A Cells The humanized anti-OX40 antibodies were also tested for their ability of binding to HEK293A/huOX40 cells or HEK293A/rhOX40 cells, following the FACS analysis protocol as described in Example 5.

[4] = molecular target: truncant 2-mFc (containing CRD/3/4); test: ELISA with recombinant mFc-tagged OX40 ECD proteins, OD450
Source text: (§2) There are four individual cysteine enriched domains (CRD) in OX40 extracellular domain (ECD), namely CRD1, CRD2, CRD3 and CRD4, respectively. Based on the structure of OX40, four recombinant OX40 proteins were generated, i.e., the full-length OX40 ECD (containing CRD1/2/3/4) (SEQ ID NO.: 38), truncant 1-mFc (containing CRD2/3/4) (SEQ ID NO.: 39), truncant 2-mFc (containing CRD/3/4) (SEQ ID NO.: 40) and truncant 3-mFc (containing CRD/4) (SEQ ID NO.: 41). All the recombinant proteins were linked with a signal peptide (SEQ ID NO.: 42) at the N terminus for protein secretion and a mFc-tag (SEQ ID NO.: 43) at the C terminus for ELISA assay. DNA sequences were synthesized and subcloned into pcDNA3.1 vector. The expression and purification of the recombinant proteins were carried out according to the protocols in Example 10. ELISA assay was performed to assess binding capacity of mAbs to recombinant OX40 proteins, following the protocol in Example 2.

[5] = molecular target: full length OX40 ECD-mFc (containing CRD1/2/3/4); test: as above
Source text: as §2

[6] = molecular target: truncant 3-mFc (containing CRD/4); test: as above
Source text: as §2

[7] = molecular target: truncant 1-mFc (containing CRD2/3/4); test: as above
Source text: as §2

[8] = molecular target: T4, recombinant human OX40-his (Sino Biological, Cat#:10481-H03H) (human, UniProt P43489 29-214); test: SPR Biacore 8K, OX40-His on chip, antibody injected
T4 construct: bought protein; also called hOX40-his; not shown: His tag
T4 sequence: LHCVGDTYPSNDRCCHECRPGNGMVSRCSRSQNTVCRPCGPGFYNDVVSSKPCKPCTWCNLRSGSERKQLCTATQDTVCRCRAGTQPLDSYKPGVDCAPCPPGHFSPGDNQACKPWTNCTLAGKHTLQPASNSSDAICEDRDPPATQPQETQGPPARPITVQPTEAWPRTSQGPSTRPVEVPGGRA
Protocol: SPR assays were used to determine the binding affinity of the chimetic or humanized anti-OX40 antibodies to human OX40 with the BIAcore™ 8K instrument (GE Life Sciences). Briefly, 100-200 response units (RU) of human OX40-His protein (Sino Biological, CN, Cat#:10481-H03H, Lot no.: MA08MA3003) were coupled to CM5 biosensor chips (Cat#: BR-1005-30, GE Life Sciences), followed by blocking of un-reacted groups with 1M ethanolamine. Serially diluted antibodies at concentrations ranging from 0.3 µM to 10 µM were injected into the SPR running buffer (HBS-EP buffer, pH7.4, GE Life Sciences; US; Cat#:BR-1006-69) at 30 µL/minute. The binding capacitity was calculated with the RUs of blank controls subtracted. The association rate (k_a) and dissociation rate (k_d) were calculated using the one-to-one Langmuir binding model (BIA Evaluation Software, GE Life Sciences). The equilibrium dissociation constant K_D was calculated as the k_d/k_a ratio.

truncant 3-mFc (containing CRD/4), sequence (chain, as listed by the source limits assumed): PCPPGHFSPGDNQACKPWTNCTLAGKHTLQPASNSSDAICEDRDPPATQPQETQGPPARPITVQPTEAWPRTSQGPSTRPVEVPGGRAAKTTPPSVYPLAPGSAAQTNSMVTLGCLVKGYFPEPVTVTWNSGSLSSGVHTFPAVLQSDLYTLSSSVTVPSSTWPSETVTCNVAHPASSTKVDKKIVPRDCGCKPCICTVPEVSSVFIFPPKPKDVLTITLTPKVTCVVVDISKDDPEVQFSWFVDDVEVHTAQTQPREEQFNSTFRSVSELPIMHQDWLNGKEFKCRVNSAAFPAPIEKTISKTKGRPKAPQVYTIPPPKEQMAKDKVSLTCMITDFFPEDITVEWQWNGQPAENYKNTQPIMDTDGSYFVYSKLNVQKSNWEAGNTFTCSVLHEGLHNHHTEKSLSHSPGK
full length OX40 ECD-mFc (containing CRD1/2/3/4), sequence (chain, as listed by the source limits assumed): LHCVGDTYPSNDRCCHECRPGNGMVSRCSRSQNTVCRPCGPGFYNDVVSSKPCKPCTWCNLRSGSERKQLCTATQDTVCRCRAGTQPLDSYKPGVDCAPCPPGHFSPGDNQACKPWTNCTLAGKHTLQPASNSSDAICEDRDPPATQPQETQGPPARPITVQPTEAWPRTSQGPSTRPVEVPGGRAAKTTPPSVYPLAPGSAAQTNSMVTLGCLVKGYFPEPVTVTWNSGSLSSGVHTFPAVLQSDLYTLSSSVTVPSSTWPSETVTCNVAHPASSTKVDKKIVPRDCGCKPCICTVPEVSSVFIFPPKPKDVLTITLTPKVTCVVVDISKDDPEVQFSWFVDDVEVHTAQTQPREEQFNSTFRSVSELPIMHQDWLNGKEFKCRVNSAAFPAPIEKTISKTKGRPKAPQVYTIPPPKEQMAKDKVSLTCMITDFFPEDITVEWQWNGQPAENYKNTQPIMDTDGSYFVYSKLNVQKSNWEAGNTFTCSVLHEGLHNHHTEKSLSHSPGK
truncant 1-mFc (containing CRD2/3/4), sequence (chain, as listed by the source limits assumed): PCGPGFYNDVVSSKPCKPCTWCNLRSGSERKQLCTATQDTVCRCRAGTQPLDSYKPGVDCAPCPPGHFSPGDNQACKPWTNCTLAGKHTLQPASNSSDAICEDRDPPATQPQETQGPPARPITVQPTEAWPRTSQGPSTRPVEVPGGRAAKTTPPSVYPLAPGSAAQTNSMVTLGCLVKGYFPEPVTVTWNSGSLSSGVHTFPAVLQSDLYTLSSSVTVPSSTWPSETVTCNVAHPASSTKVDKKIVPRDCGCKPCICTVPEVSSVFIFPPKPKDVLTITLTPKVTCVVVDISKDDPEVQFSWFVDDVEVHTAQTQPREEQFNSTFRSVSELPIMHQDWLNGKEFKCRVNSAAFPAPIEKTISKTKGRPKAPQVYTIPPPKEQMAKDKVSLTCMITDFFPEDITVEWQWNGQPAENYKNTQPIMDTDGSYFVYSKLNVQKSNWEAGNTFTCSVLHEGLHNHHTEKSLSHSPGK
truncant 2-mFc (containing CRD/3/4), sequence (chain, as listed by the source limits assumed): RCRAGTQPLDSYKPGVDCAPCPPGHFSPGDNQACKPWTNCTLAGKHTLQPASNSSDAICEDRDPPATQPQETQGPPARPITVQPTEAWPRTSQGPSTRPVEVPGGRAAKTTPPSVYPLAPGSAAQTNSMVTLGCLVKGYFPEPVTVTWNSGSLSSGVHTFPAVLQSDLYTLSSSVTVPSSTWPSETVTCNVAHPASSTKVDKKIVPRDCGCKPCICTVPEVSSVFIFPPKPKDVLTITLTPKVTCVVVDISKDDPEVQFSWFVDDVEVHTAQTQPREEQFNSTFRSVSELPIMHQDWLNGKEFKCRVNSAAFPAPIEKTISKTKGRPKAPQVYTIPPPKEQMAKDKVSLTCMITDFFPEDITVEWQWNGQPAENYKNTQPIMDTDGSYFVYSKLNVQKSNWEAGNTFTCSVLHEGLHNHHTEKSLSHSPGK

binding result [3]: binds
binding result [4]: binds
binding result [5]: binds
binding result [6]: no binding
binding result [7]: binds
Kd [8]: 1.96 nM
koff [8]: 0.000927 s⁻¹
kon [8]: 473000 M⁻¹ s⁻¹
B1: 68C8-VH2VL3 (antibody, human IgG1, kappa, V domains shown)
VH: QVQLVQSGAEVKKPGASVKVSCKVSGDTFTSYWITWVRQRPGKGLEWMGDIHPGSGSTNNNEKFKNRVTMTVDTSTDTAYMELSSLRSEDTAVYYCATLRPYYFVYWGQGTLVTVSS
VL: DIQMTQSPSSLSASVGDRVTITCRASQDISNYLNWYQQKPGKTVKLLIYYTSRLLSGVPSRFSGSGSGTDYTLTISSLQPEDFATYFCQQGNTLPLTFGQGTRLEIKR
notes: humanized; also called 68C8-H2L3; 68C8H2L3
binding result [1]: no binding (tested: about 10000 ng/mL (log about 4))
binding result [2]: no binding (tested: about 10000 ng/mL (log about 4))

binding result [3]: binds
binding result [4]: binds
binding result [5]: binds
binding result [6]: no binding
binding result [7]: binds
Kd [8]: 4.57 nM
koff [8]: 0.00198 s⁻¹
kon [8]: 434000 M⁻¹ s⁻¹
B2: 71H8-VH2VL3 (antibody, human IgG1, kappa, V domains shown)
VH: B1 VH with D27Y, H52Y, N60Q, N66S
VL: B1 VL
notes: humanized; also called 71H8-H2L3; 71H8H2L3
binding result [1]: no binding (tested: about 10000 ng/mL (log about 4))
binding result [2]: no binding (tested: about 10000 ng/mL (log about 4))
